# In patent US20250320281A1:
# Key:
# Assay in all cases: cell-based or functional assay
# [1] = target: HIV-1 Env of isolate AC10 (clade B pseudovirus) (HIV-1)
# [2] = target: HIV-1 Env of isolate ZM214 (clade C pseudovirus) (HIV-1)
# [3] = target: HIV-1 92TH021 envelope glycoprotein (Env) on pseudovirus (HIV-1 isolate 92TH021 (clade AE))
# [4] = target: HIV-1 94UG103 envelope glycoprotein (Env) on pseudovirus (HIV-1 isolate 94UG103 (clade A))
# [5] = target: HIV-1 APV6 envelope glycoprotein (Env) on pseudovirus (HIV-1 isolate APV6 (clade B))
# [6] = target: HIV-1 MGRM-C-026 envelope glycoprotein (Env) on pseudovirus (HIV-1 isolate MGRM-C-026 (clade C))
# [7] = target: HIV-1 MGRM-C-028 envelope glycoprotein (Env) on pseudovirus (HIV-1 isolate MGRM-C-028 (clade C))
# [8] = target: HIV-1 Env of isolate 94UG103 (pseudovirus) (HIV-1)
# [9] = target: aMLV envelope protein on pseudovirus (negative control virus) (aMLV)
# [10] = target: HIV-1 92BR020 Env (HIV-1)
# [11] = target: HIV-1 92UG024 Env (HIV-1)
# [12] = target: HIV-1 93IN905 Env (HIV-1)
# [13] = target: HIV-1 MGRM-A-010 Env (HIV-1)
# [14] = target: HIV-1 MGRM-D-001 Env (HIV-1)
# [15] = target: HIV-1 92UG005 Env (pseudovirus) (HIV-1 isolate 92UG005 (clade D))
# [16] = target: HIV-1 92UG024 Env (pseudovirus) (HIV-1 isolate 92UG024 (clade D))
# [17] = target: HIV-1 93IN905 Env (pseudovirus) (HIV-1 isolate 93IN905 (clade C))
# [18] = target: HIV-1 APV13 Env (pseudovirus) (HIV-1 isolate APV13 (clade B))
# [19] = target: HIV-1 APV17 Env (pseudovirus) (HIV-1 isolate APV17 (clade B))
# [20] = target: HIV-1 CMU02 Env (pseudovirus) (HIV-1 isolate CMU02 (clade AE))
# [21] = target: HIV-1 MGRM-A-010 Env (pseudovirus) (HIV-1 isolate MGRM-A-010 (clade A))
# [22] = target: HIV-1 Env of isolate MG RM-D-018 (clade D), on pseudovirus (HIV-1)
# [23] = target: HIV-1 Env of isolate MG RM-D-022 (clade D), on pseudovirus (HIV-1)
# [24] = target: HIV-1 Env of isolate MG RM-D-029 (clade D), on pseudovirus (HIV-1)
# [25] = target: HIV-1 Env of isolate MGRM-Chronic-B-001 (HIV-1)
# [26] = target: HIV-1 Env of isolate MGRM-F1-015 (clade F), on pseudovirus (HIV-1)
# [27] = target: HIV-1 Env of isolate MGRM-F1-023 (clade F pseudovirus) (HIV-1)
# [28] = target: HIV-1 Env of pseudovirus 93UG077 (subtype A) (HIV-1)
# [29] = target: HIV-1 Env of pseudovirus MGRM-A-002 (subtype A) (HIV-1)
# [30] = target: HIV-1 Env of pseudovirus MGRM-A-006 (subtype A) (HIV-1)
# [31] = target: HIV-1 Env of isolate MGRM-F1-010 (HIV-1)
# [32] = target: HIV-1 Env of pseudovirus MGRM-AG-008 (subtype AG) (HIV-1)
# [33] = target: HIV-1 Env of pseudovirus MGRM-AG-009 (subtype AG) (HIV-1)
# Chain of 1443_C16 (PG16) (TCN-116) (antibody) (VH): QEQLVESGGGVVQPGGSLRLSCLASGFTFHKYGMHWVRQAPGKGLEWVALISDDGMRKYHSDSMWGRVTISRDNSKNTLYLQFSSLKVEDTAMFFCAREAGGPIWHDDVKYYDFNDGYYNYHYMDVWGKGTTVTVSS
# Chain of 1443_C16 (PG16) (TCN-116) (antibody) (VL): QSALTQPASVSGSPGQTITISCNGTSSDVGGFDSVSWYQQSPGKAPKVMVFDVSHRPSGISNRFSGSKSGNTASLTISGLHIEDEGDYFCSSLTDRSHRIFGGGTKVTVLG
substance,measurement,setting,value
1443_C16 (PG16) (TCN-116) (antibody),"IC50 (neutralization, TZM-bl pseudovirus assay)",[1],< 0.01 µg/mL
same,"IC50 (neutralization, TZM-bl pseudovirus assay)",[2],> 25 µg/mL
1496_C09 (PG9) (TCN-109) (antibody),neutralization IC50,[3],0.103 µg/mL
same,neutralization IC80,[3],0.448 µg/mL
same,neutralization IC90,[3],1.07 µg/mL
same,neutralization IC95,[3],2.43 µg/mL
same,neutralization IC50,[4],0.31 µg/mL
same,neutralization IC80,[4],1.95 µg/mL
same,neutralization IC90,[4],5.54 µg/mL
same,neutralization IC50,[5],0.214 µg/mL
same,neutralization IC80,[5],1.13 µg/mL
same,neutralization IC90,[5],3.21 µg/mL
same,neutralization IC95,[5],9.65 µg/mL
same,neutralization IC50,[6],0.113 µg/mL
same,neutralization IC50,[7],0.121 µg/mL
same,neutralization IC80,[7],0.645 µg/mL
same,neutralization IC90,[7],1.65 µg/mL
same,neutralization IC95,[7],3.71 µg/mL
4858_P08 (PGT-123) (antibody),Primary Neutralization Index (B cell culture supernatant),[8],1.1
same,neutralization IC50,[9],> 10 µg/mL
same,neutralization IC80,[9],> 10 µg/mL
same,neutralization IC90,[9],> 10 µg/mL
same,neutralization IC95,[9],> 10 µg/mL
4877_D15 (PGT-122) (antibody),"Neutralization by PGT-122, IC50",[10],0.0337 µg/mL
same,"Neutralization by PGT-122, IC80",[10],0.0929 µg/mL
same,"Neutralization by PGT-122, IC90",[10],0.168 µg/mL
same,"Neutralization by PGT-122, IC95",[10],0.289 µg/mL
same,"Neutralization by PGT-122, IC50",[11],> 10 µg/mL
same,"Neutralization by PGT-122, IC80",[11],> 10 µg/mL
same,"Neutralization by PGT-122, IC90",[11],> 10 µg/mL
same,"Neutralization by PGT-122, IC95",[11],> 10 µg/mL
same,"Neutralization by PGT-122, IC50",[12],0.0138 µg/mL
same,"Neutralization by PGT-122, IC80",[12],0.0505 µg/mL
same,"Neutralization by PGT-122, IC90",[12],0.108 µg/mL
same,"Neutralization by PGT-122, IC95",[12],0.217 µg/mL
same,"Neutralization by PGT-122, IC50",[13],1.68 µg/mL
same,"Neutralization by PGT-122, IC80",[13],> 10 µg/mL
same,"Neutralization by PGT-122, IC90",[13],> 10 µg/mL
same,"Neutralization by PGT-122, IC95",[13],> 10 µg/mL
same,"Neutralization by PGT-122, IC50",[14],0.867 µg/mL
same,"Neutralization by PGT-122, IC80",[14],4.48 µg/mL
same,"Neutralization by PGT-122, IC90",[14],> 10 µg/mL
same,"Neutralization by PGT-122, IC95",[14],> 10 µg/mL
5123_A06 (PGT-125) (antibody),"Neutralization by PGT-125, IC50",[15],> 10 µg/mL
same,"Neutralization by PGT-125, IC80",[15],> 10 µg/mL
same,"Neutralization by PGT-125, IC90",[15],> 10 µg/mL
same,"Neutralization by PGT-125, IC95",[15],> 10 µg/mL
same,"Neutralization by PGT-125, IC50",[16],> 10 µg/mL
same,"Neutralization by PGT-125, IC80",[16],> 10 µg/mL
same,"Neutralization by PGT-125, IC90",[16],> 10 µg/mL
same,"Neutralization by PGT-125, IC95",[16],> 10 µg/mL
same,"Neutralization by PGT-125, IC50",[17],0.0137 µg/mL
same,"Neutralization by PGT-125, IC80",[17],0.0494 µg/mL
same,"Neutralization by PGT-125, IC90",[17],0.106 µg/mL
same,"Neutralization by PGT-125, IC95",[17],0.216 µg/mL
same,"Neutralization by PGT-125, IC50",[18],0.0128 µg/mL
same,"Neutralization by PGT-125, IC80",[18],0.0414 µg/mL
same,"Neutralization by PGT-125, IC90",[18],0.0821 µg/mL
same,"Neutralization by PGT-125, IC95",[18],0.154 µg/mL
same,"Neutralization by PGT-125, IC50",[19],7.31 µg/mL
same,"Neutralization by PGT-125, IC80",[19],> 10 µg/mL
same,"Neutralization by PGT-125, IC90",[19],> 10 µg/mL
same,"Neutralization by PGT-125, IC95",[19],> 10 µg/mL
same,"Neutralization by PGT-125, IC50",[20],> 10 µg/mL
same,"Neutralization by PGT-125, IC80",[20],> 10 µg/mL
same,"Neutralization by PGT-125, IC90",[20],> 10 µg/mL
same,"Neutralization by PGT-125, IC95",[20],> 10 µg/mL
same,"Neutralization by PGT-125, IC50",[21],0.0055 µg/mL
same,"Neutralization by PGT-125, IC80",[21],0.024 µg/mL
same,"Neutralization by PGT-125, IC90",[21],0.0575 µg/mL
same,"Neutralization by PGT-125, IC95",[21],0.131 µg/mL
PGV04 (antibody),"IC50 (µg/mL), pseudovirus neutralization",[22],17.5 µg/mL
same,"IC50 (µg/mL), pseudovirus neutralization",[23],> 50 µg/mL
same,"IC50 (µg/mL), pseudovirus neutralization",[24],1.56 µg/mL
same,"IC50 (µg/mL), pseudovirus neutralization",[25],0.048 µg/mL
same,"IC50 (µg/mL), pseudovirus neutralization",[26],0.179 µg/mL
same,"IC50 (µg/mL), pseudovirus neutralization",[27],0.171 µg/mL
same,"IC50, pseudovirus neutralization",[28],0.083 µg/mL
same,"IC50, pseudovirus neutralization",[29],0.093 µg/mL
same,"IC50, pseudovirus neutralization",[30],0.244 µg/mL
VRC01 (antibody),IC50,[31],0.097 µg/mL
same,"IC50, pseudovirus neutralization",[32],0.124 µg/mL
same,"IC50, pseudovirus neutralization",[33],> 50 µg/mL
